Changes are numbered by the printed parent chain.
B1: IgG1-CD134-Hu106 (antibody, from another filing, V domains shown)
VH: QVQLVQSGSELKKPGASVKVSCKASGYTFTDYSMHWVRQAPGQGLKWMGWINTETGEPTYADDFKGRFVFSLDTSVSTAYLQISSLKAEDTAVYYCANPYYDYVSYYAMDYWGQGTTVTVSS
VL: DIQMTQSPSSLSASVGDRVTITCKASQDVSTAVAWYQQKPGKAPKLLIYSASYLYTGVPSRFSGSGSGTDFTFTISSLQPEDIATYYCQQHYSTPRTFGQGTKLEIK
B2: IgG1-CD134-MEDI0562 (antibody, INN chains, looked up, V domains shown)
VH: QVQLQESGPGLVKPSQTLSLTCAVYGGSFSSGYWNWIRKHPGKGLEYIGYISYNGITYHNPSLKSRITINRDTSKNQYSLQLNSVTPEDTAVYYCARYKYDYDGGHAMDYWGQGTLVTVSS
VL: DIQMTQSPSSLSASVGDRVTITCRASQDISNYLNWYQQKPGKAPKLLIYYTSKLHSGVPSRFSGSGSGTDYTLTISSLQPEDFATYYCQQGSALPWTFGQGTKVEIK
modifications: IgG1
B3: IgG1-CD134-RG7888 (antibody, INN chains, looked up, V domains shown)
VH: EVQLVQSGAEVKKPGASVKVSCKASGYTFTDSYMSWVRQAPGQGLEWIGDMYPDNGDSSYNQKFRERVTITRDTSTSTAYLELSSLRSEDTAVYYCVLAPRWYFSVWGQGTLVTVSS
VL: B2 VL with K53R, H55R, Y71F, S92H, A93T, W96P
modifications: IgG1
B4: IgG1-CD134-ABBV368 (antibody, INN chains, looked up, V domains shown)
VH: EVQLVESGGGLVQPGGSLRLSCAASGFTFSRYGMSWVRQAPGKGLELVATINSNGGRTYYPDSVKGRFTISRDNAKNSLYLQMNSLRAEDTAVYYCAREGITTAYAMDYWGQGTTVTVSS
VL: DIVMTQSPDSLAVSLGERATINCKASQSVDYDGDSYMHWYQQKPGQPPKLLIYAASILESGVPDRFSGSGSGTDFTLTISSLQAEDVAVYYCQQSNEDPRTFGGGTKVEIK
modifications: IgG1
B5: IgG1-CD134-GBR830 (antibody, INN chains, looked up, V domains shown)
VH: QVTLKESGPALVKPTQTLTLTCSFSGFSLSTSGMGVGWIRQPPGKALEWIAHIWWDDDKYYNTALKTRLTISKDTSKNQVVLTMTNMDPVDTATYYCARIDWDGFAYWGQGTLVTVSS
VL: EIVLTQSPATLSLSPGERATLSCRASSSVSYMHWYQQKPGQAPRPWIYATSNRATGIPARFSGSGSGTDYTLTISSLEPEDFAVYYCQQWSSNPWTFGQGTKVEIK
modifications: IgG1

Target: recombinant human OX40 fused to a His-tag (Acro Biosystems, cat. no. OX0-H5224) (human) (UniProt P43489)
Assay: BLI cross-block; first Ab (competitor): IgG1-CD134-012

recombinant human OX40 fused to a His-tag (Acro Biosystems, cat. no. OX0-H5224) (human), sequence (P43489 29-214 limits assumed): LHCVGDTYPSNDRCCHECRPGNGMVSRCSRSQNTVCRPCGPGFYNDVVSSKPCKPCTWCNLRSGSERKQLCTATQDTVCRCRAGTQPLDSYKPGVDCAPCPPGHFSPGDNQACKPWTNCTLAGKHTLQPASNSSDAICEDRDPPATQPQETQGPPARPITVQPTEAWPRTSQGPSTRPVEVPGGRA

Row | Binder | association response
1 | B1 | 0.8 nm
2 | B2 | 0.82 nm
3 | B3 | 0.54 nm
4 | B4 | 0.87 nm
5 | B5 | 0.84 nm

Target: recombinant human OX40 fused to a His-tag (Acro Biosystems, cat. no. OX0-H5224) (human) (UniProt P43489)
Assay: BLI cross-block; first Ab (competitor): IgG1-CD134-SF2

Row | Binder | association response
6 | B1 | 0.03 nm
7 | B2 | 0.01 nm
8 | B3 | 0.01 nm
9 | B4 | 0.04 nm
10 | B5 | 0.19 nm

Target: recombinant human OX40 fused to a His-tag (Acro Biosystems, cat. no. OX0-H5224) (human) (UniProt P43489)
Assay: BLI cross-block; first Ab (competitor): IgG1-CD134-INCAGN1949

Row | Binder | association response
11 | B1 | 0 nm
12 | B2 | 0 nm
13 | B3 | 0.02 nm
14 | B4 | 0.01 nm
15 | B5 | 0.01 nm

Target: recombinant human OX40 fused to a His-tag (Acro Biosystems, cat. no. OX0-H5224) (human) (UniProt P43489)
Assay: BLI cross-block; first Ab (competitor): IgG1-CD134-11D4

Row | Binder | association response
16 | B1 | 0.13 nm
17 | B2 | 0.14 nm
18 | B3 | 0.11 nm
19 | B4 | 0.13 nm
20 | B5 | 0.13 nm

Target: recombinant human OX40 fused to a His-tag (Acro Biosystems, cat. no. OX0-H5224) (human) (UniProt P43489)
Assay: BLI cross-block; first Ab (competitor): IgG1-CD134-Hu106

Row | Binder | association response
21 | B1 | 0.05 nm
22 | B2 | 0.69 nm
23 | B3 | 0.1 nm
24 | B4 | 0 nm
25 | B5 | 0.02 nm

Target: recombinant human OX40 fused to a His-tag (Acro Biosystems, cat. no. OX0-H5224) (human) (UniProt P43489)
Assay: BLI cross-block; first Ab (competitor): IgG1-CD134-003

Row | Binder | association response
26 | B1 | 1.06 nm
27 | B2 | 1.39 nm
28 | B3 | 0.66 nm
29 | B4 | 1.27 nm
30 | B5 | 0.97 nm

Target: recombinant human OX40 fused to a His-tag (Acro Biosystems, cat. no. OX0-H5224) (human) (UniProt P43489)
Assay: BLI cross-block; first Ab (competitor): IgG1-CD134-007

Row | Binder | association response
31 | B1 | 0.05 nm
32 | B2 | 1.14 nm
33 | B3 | 0.47 nm
34 | B4 | 0 nm
35 | B5 | 0.07 nm

Target: recombinant human OX40 fused to a His-tag (Acro Biosystems, cat. no. OX0-H5224) (human) (UniProt P43489)
Assay: BLI cross-block; first Ab (competitor): IgG1-CD134-IBI101

Row | Binder | association response
36 | B1 | 0.01 nm
37 | B2 | 0.28 nm
38 | B3 | 0.23 nm
39 | B4 | 0.01 nm
40 | B5 | 0.02 nm

Target: recombinant human OX40 fused to a His-tag (Acro Biosystems, cat. no. OX0-H5224) (human) (UniProt P43489)
Assay: BLI cross-block; first Ab (competitor): IgG1-CD134-RG7888

Row | Binder | association response
41 | B1 | 0.02 nm
42 | B2 | 0 nm
43 | B3 | 0.02 nm
44 | B4 | 0.02 nm
45 | B5 | 0.61 nm

Target: recombinant human OX40 fused to a His-tag (Acro Biosystems, cat. no. OX0-H5224) (human) (UniProt P43489)
Assay: BLI cross-block; first Ab (competitor): IgG1-CD134-A4453

Row | Binder | association response
46 | B1 | 0.29 nm
47 | B2 | 0.41 nm
48 | B3 | 0.47 nm
49 | B4 | 0.29 nm
50 | B5 | 0.28 nm

Target: recombinant human OX40 fused to a His-tag (Acro Biosystems, cat. no. OX0-H5224) (human) (UniProt P43489)
Assay: BLI cross-block; first Ab (competitor): IgG1-CD134-h3C8

Row | Binder | association response
51 | B1 | 0.01 nm
52 | B2 | 0.54 nm
53 | B3 | 0.41 nm
54 | B4 | -0.03 nm
55 | B5 | -0.02 nm

Target: recombinant human OX40 fused to a His-tag (Acro Biosystems, cat. no. OX0-H5224) (human) (UniProt P43489)
Assay: BLI cross-block; first Ab (competitor): IgG1-CD134-ABBV368

Row | Binder | association response
56 | B1 | -0.01 nm
57 | B2 | -0.02 nm
58 | B3 | 0.01 nm
59 | B4 | -0.04 nm
60 | B5 | -0.01 nm

Target: recombinant human OX40 fused to a His-tag (Acro Biosystems, cat. no. OX0-H5224) (human) (UniProt P43489)
Assay: BLI cross-block; first Ab (competitor): IgG1-CD134-49B4-RRE

Row | Binder | association response
61 | B1 | -0.01 nm
62 | B2 | 0.15 nm
63 | B3 | 0.02 nm
64 | B4 | 0 nm
65 | B5 | 0 nm

Target: recombinant human OX40 fused to a His-tag (Acro Biosystems, cat. no. OX0-H5224) (human) (UniProt P43489)
Assay: BLI cross-block; first Ab (competitor): IgG1-CD134-GBR830

Row | Binder | association response
66 | B1 | 0.01 nm
67 | B2 | 0.32 nm
68 | B3 | 0.26 nm
69 | B4 | 0.01 nm
70 | B5 | 0.01 nm

Target: recombinant human OX40 fused to a His-tag (Acro Biosystems, cat. no. OX0-H5224) (human) (UniProt P43489)
Assay: BLI cross-block; first Ab (competitor): IgG1-CD134-MEDI0562

Row | Binder | association response
71 | B1 | 0.31 nm
72 | B2 | 0 nm
73 | B3 | 0.02 nm
74 | B4 | -0.01 nm
75 | B5 | 0.33 nm

Target: recombinant human OX40 fused to a His-tag (Acro Biosystems, cat. no. OX0-H5224) (human) (UniProt P43489)
Assay: BLI cross-block; first Ab (competitor): IgG1-CD134-003-HC6LC2-RR

Row | Binder | association response
76 | B1 | 1.39 nm
77 | B2 | 1.73 nm
78 | B3 | 1.38 nm
79 | B4 | 1.68 nm
80 | B5 | 1.08 nm
